The values below are quoted from earlier work in paper PMC5472698.

The target in this data set is CD21 (Homo sapiens) (UniProt P20023).
Sequence of CD21 (Homo sapiens) (P20023 21-1033): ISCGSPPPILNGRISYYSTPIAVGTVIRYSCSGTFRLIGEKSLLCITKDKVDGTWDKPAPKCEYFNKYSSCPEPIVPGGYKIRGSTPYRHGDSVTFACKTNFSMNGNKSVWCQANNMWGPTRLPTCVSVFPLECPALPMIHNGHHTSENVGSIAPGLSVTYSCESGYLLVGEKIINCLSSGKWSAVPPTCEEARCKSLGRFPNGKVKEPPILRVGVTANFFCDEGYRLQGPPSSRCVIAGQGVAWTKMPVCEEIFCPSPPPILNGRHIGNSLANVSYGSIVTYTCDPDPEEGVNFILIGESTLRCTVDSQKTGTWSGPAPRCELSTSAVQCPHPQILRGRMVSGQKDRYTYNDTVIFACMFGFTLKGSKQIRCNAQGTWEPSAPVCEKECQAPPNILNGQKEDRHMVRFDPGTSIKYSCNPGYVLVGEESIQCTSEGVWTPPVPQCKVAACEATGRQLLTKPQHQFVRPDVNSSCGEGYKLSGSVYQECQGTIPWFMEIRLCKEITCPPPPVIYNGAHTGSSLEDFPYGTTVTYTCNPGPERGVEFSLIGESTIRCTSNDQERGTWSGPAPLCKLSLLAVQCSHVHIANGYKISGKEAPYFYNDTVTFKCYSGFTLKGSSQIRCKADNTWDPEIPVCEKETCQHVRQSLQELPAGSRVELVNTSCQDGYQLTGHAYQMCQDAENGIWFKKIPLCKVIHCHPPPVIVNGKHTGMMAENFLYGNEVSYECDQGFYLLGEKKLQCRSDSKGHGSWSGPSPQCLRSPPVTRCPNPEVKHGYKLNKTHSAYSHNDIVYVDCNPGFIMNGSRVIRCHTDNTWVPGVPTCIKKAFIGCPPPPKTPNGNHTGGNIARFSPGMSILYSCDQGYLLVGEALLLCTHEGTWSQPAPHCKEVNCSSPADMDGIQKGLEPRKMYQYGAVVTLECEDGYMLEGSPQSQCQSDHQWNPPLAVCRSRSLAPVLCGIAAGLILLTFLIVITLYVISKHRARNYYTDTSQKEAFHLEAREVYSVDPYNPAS

Sequence of gp350/220 (P03200 whole entry): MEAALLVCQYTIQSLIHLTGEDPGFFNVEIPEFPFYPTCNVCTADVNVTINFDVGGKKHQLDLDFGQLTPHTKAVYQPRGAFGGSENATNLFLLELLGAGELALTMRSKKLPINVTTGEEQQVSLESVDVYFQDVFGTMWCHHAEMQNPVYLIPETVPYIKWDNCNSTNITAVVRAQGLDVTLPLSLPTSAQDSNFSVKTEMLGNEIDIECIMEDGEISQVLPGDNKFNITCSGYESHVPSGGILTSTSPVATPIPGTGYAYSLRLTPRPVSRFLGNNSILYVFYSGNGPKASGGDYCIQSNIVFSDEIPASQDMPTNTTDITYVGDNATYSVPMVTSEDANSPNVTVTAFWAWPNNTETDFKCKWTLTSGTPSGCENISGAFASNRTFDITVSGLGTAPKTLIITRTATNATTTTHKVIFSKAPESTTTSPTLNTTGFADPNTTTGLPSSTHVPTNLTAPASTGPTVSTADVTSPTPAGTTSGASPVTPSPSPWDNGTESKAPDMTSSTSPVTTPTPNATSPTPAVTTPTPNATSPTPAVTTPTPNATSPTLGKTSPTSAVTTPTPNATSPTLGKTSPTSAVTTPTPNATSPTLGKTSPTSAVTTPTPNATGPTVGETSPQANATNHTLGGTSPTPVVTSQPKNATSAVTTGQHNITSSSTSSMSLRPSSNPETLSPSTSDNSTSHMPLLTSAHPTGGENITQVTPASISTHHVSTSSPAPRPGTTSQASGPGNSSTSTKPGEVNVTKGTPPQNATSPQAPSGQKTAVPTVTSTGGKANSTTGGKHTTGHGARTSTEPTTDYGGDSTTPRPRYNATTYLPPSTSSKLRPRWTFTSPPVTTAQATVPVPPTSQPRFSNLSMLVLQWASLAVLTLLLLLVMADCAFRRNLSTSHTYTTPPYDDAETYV

For gp350/220 (from UniProt P03200), the Kd was 12 nM.
